To fix the notation:
B1: Peregrin (Homo sapiens), P55201 (parent)
chain: MGVDFDVKTFCHNLRATKPPYECPVETCRKVYKSYSGIEYHLYHYDHDNPPPPQQTPLRKHKKKGRQSRPANKQSPSPSEVSQSPGREVMSYAQAQRMVEVDLHGRVHRISIFDNLDVVSEDEEAPEEAPENGSNKENTETPAATPKSGKHKNKEKRKDSNHHHHHNVSASTTPKLPEVVYRELEQDTPDAPPRPTSYYRYIEKSAEELDEEVEYDMDEEDYIWLDIMNERRKTEGVSPIPQEIFEYLMDRLEKESYFESHNKGDPNALVDEDAVCCICNDGECQNSNVILFCDMCNLAVHQECYGVPYIPEGQWLCRRCLQSPSRAVDCALCPNKGGAFKQTDDGRWAHVVCALWIPEVCFANTVFLEPIDSIEHIPPARWKLTCYICKQRGSGACIQCHKANCYTAFHVTCAQQAGLYMKMEPVRETGANGTSFSVRKTAYCDIHTPPGSARRLPALSHSEGEEDEDEEEDEGKGWSSEKVKKAKAKSRIKMKKARKILAEKRAAAPVVSVPCIPPHRLSKITNRLTIQRKSQFMQRLHSYWTLKRQSRNGVPLLRRLQTHLQSQRNCDQVGRDSEDKNWALKEQLKSWQRLRHDLERARLLVELIRKREKLKRETIKVQQIAMEMQLTPFLILLRKTLEQLQEKDTGNIFSEPVPLSEVPDYLDHIKKPMDFFTMKQNLEAYRYLNFDDFEEDFNLIVSNCLKYNAKDTIFYRAAVRLREQGGAVLRQARRQAEKMGIDFETGMHIPHSLAGDEATHHTEDAAEEERLVLLENQKHLPVEEQLKLLLERLDEVNASKQSVGRSRRAKMIKKEMTALRRKLAHQRETGRDGPERHGPSSRGSLTPHPAACDKDGQTDSAAEESSSQETSKGLGPNMSSTPAHEVGRRTSVLFSKKNPKTAGPPKRPGRPPKNRESQMTPSHGGSPVGPPQLPIMSSLRQRKRGRSPRPSSSSDSDSDKSTEDPPMDLPANGFSGGNQPVKKSFLVYRNDCSLPRSSSDSESSSSSSSSAASDRTSTTPSKQGRGKPSFSRGTFPEDSSEDTSGTENEAYSVGTGRGVGHSMVRKSLGRGAGWLSEDEDSPLDALDLVWAKCRGYPSYPALIIDPKMPREGMFHHGVPIPVPPLEVLKLGEQMTQEAREHLYLVLFFDNKRTWQWLPRTKLVPLGVNQDLDKEKMLEGRKSNIRKSVQIAYHRALQHRSKVQGEQSSETSDSD

Variants of B1 are the subject of one test. To be noted: with h2a1_human H2AC11, P0C0S8.
On to N708A, for which the “effect of a mutation on the interaction” value was “disrupting interaction”.

Variants of B1 are the subject of a further test. To be noted: with h4_human H4C16, P62805.
For the variant N708A, the “effect of a mutation on the interaction” value is recorded as “disrupting interaction”.

Variants of B1 are the subject of a further test. To be noted: with h2a1_human H2AC11, P0C0S8. This is another data set of the same source.
As for I713A, the “effect of a mutation on the interaction” value was “decreasing interaction”.

Variants of B1 are the subject of the next test. To be noted: with h4_human H4C16, P62805. The source holds these as a separate data set.
Consider I713A, for which the “effect of a mutation on the interaction” value is reported as “decreasing interaction”.

The variants in the next test derive from B1. The note with it: with h2a1_human H2AC11, P0C0S8. This is another data set of the same source.
For the variant E661A, the “effect of a mutation on the interaction” value is recorded as “decreasing interaction”.

Variants of B1 are the subject of another test. The note with it: with h4_human H4C16, P62805. The source holds these as a separate data set.
With E661A, the “effect of a mutation on the interaction” value is “decreasing interaction”.

Variants of B1 are the subject of the next test. The note with it: with h2a1_human H2AC11, P0C0S8. The source holds these as a separate data set.
Turning to A709S, the “effect of a mutation on the interaction” value was “decreasing interaction”.

The variants in the next test derive from B1. The note with it: with h4_human H4C16, P62805. The source holds these as a separate data set.
As to A709S, the “effect of a mutation on the interaction” value was “decreasing interaction”.

Variants of B1 are the subject of another test. To be noted: with h2a1_human H2AC11, P0C0S8. The source holds these as a separate data set.
Regarding C704A, the “effect of a mutation on the interaction” value is listed as “decreasing interaction”.

The next test covers variants of B1. To be noted: with h4_human H4C16, P62805. The source holds these as a separate data set.
C704A: the “effect of a mutation on the interaction” value is reported as “decreasing interaction”.

The variants in a further test derive from B1. The note with it: with h2a1_human H2AC11, P0C0S8. This is another data set of the same source.
Turning to F714A, the “effect of a mutation on the interaction” value is listed as “disrupting interaction”.

The next test covers variants of B1. The note with it: with h4_human H4C16, P62805. The source holds these as a separate data set.
As to F714A, the “effect of a mutation on the interaction” value is recorded as “disrupting interaction”.

Values taken from IntAct's records for PubMed 25281266.
